Measured values: paper PMC2795092

Molecular target: purified full-length human hexahistidine-tagged 14-3-3η (human) (UniProt Q04917)
Experiment: pull-down

Sequence of UniProt Q04917 (Q04917 whole entry): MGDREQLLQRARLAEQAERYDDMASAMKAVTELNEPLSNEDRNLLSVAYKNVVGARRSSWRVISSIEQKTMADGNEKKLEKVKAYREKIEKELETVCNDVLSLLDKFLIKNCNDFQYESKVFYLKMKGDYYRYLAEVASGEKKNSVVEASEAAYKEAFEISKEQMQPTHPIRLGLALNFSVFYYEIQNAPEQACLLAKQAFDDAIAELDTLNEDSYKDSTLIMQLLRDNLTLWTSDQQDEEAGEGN

“in vitro translated 35S-labeled androgen receptor (AR) (from UniProt P10275 1-920)” gave a densitometry of bound [35S] AR of 15000.
